Experimental findings from publication PMC8058561, “Activity-dependent conformational transitions of the insulin receptor–related receptor” (The Journal of Biological Chemistry, 2021) are described below.

The data set concerns the molecule itself. Put plainly: atomic force microscopy; purified full-length IRR in DDM micelles deposited on mica; tapping mode in 150 mM NaCl, 20 mM sodium phosphate, 5% glycerol, pH 7.0 or pH 9.0; single receptor-micelle complexes sorted by the shape of the ectodomain.

B1: insulin receptor-related receptor (full-length human IRR with a C-terminal 6xHIS tag) (receptor)
chain 1: VEVCPSLDIRSEVAELRQLENCSVVEGHLQILLMFTATGEDFRGLSFPRLTQVTDYLLLFRVYGLESLRDLFPNLAVIRGTRLFLGYALVIFEMPHLRDVALPALGAVLRGAVRVEKNQELCHLSTIDWGLLQPAPGANHIVGNKLGEECADVCPGVLGAAGEPCAKTTFSGHTDYRCWTSSHCQRVCPCPHGMACTARGECCHTECLGGCSQPEDPRACVACRHLYFQGACLWACPPGTYQYESWRCVTAERCASLHSVPGRASTFGIHQGSCLAQCPSGFTRNSSSIFCHKCEGLCPKECKVGTKTIDSIQAAQDLVGCTHVEGSLILNLRQGYNLEPQLQHSLGLVETITGFLKIKHSFALVSLGFFKNLKLIRGDAMVDGNYTLYVLDNQNLQQLGSWVAAGLTIPVGKIYFAFNPRLCLEHIYRLEEVTGTRGRQNKAEINPRTNGDRAACQTRTLRFVSNVTEADRILLRWERYEPLEARDLLSFIVYYKESPFQNATEHVGPDACGTQSWNLLDVELPLSRTQEPGVTLASLKPWTQYAVFVRAITLTTEEDSPHQGAQSPIVYLRTLPAAPTVPQDVISTSNSSSHLLVRWKPPTQRNGNLTYYLVLWQRLAEDGDLYLNDYCHRGLRLPTSNNDPRFDGEDGDPEAEMESDCCPCQHPPPGQVLPPLEAQEASFQKKFENFLHNAITIPISPWKVTSINKSPQRDSG
chain 2: not shown
notes: alpha subunit (about 100 kDa) of human insulin receptor-related receptor, cut from the single-chain precursor (about 170 kDa); beta subunit (about 70 kDa) of human insulin receptor-related receptor, cut from the single-chain precursor (about 170 kDa); holds the transmembrane segment and the tyrosine kinase domain; Some uncleaved proreceptor (170 kDa) was also seen on the blot; The receptor was …
Regarding B1, the binding result is “binds”.
